How the values were obtained:
human C5 antigen [1] = target: T1, human C5 antigen (human, UniProt P01031 19-673; P01031 678-1676); assay: BLI (ForteBio Octet)
T1 construct: The later ELISAs detect it with an anti-histidine antibody, so it carries a His tag; also called complement component 5

human C5 antigen [2] = target: T1, human C5 antigen; assay: ELISA, antibody coated, human C5 titrated; EC50 is the antigen concentration
Experimental: The wells were blocked with 2.5% skimmed milk dissolved in a phosphate-buffered saline (PBS) for 1 hour, and washed with a PBST solution (a PBS solution containing 20% Tween). Then, 100 μL of the human C5 gradient diluent (the C5 was diluted to 1 ug/ml, followed by 3 X dilution to give 7 gradients, with 100 μL/well) was added into each well, and incubated at room temperature for 1 hr.
EC₅₀ can be used to evaluate the concentration of antigen at the 50% binding capacity of various antibodies to the antigen.

[3] = target: T2, C5 of normal human serum (NHS) (human, UniProt P01031 19-1676); assay: cell-based or functional assay
[4] = target: T2, C5 of normal human serum (NHS); assay: cell-based or functional assay; remark: listed apart in the source

Binder | Kd (human C5 antigen [1]) | koff (human C5 antigen [1]) | kon (human C5 antigen [1]) | EC50 (human C5 antigen [2]) | IC50 (ng/ml), classical pathway (CP) hemolysis inhibition [3] | IC90 (ng/ml), classical pathway (CP) hemolysis inhibition [3] | IC50 (ng/ml), inhibition of classical pathway hemolysis of sheep red blood cells by 1% NHS [4]
Eculizumab (antibody, human IgG2, kappa, V domains shown) VH: QVQLVQSGAEVKKPGASVKVSCKASGYIFSNYWIQWVRQAPGQGLEWMGEILPGSGSTEYTENFKDRVTMTRDTSTSTVYMELSSLRSEDTAVYYCARYFFGSSPNWYFDVWGQGTLVTVSS VL: DIQMTQSPSSLSASVGDRVTITCGASENIYGALNWYQQKPGKAPKLLIYGATNLADGVPSRFSGSGSGTDFTLTISSLQPEDFATYYCQNVLNTPLTFGQGTKVEIKR | – | – | – | – | 559 ng/mL | 1340 ng/mL | 401 ng/mL
chimeric antibody CHI-16 (antibody, human IgG1, kappa, L234A L235A, V domains shown) VH: QIQLVQSGPELKKPGETVKISCKASGYTFTNYGMNWVKQAPGKGLKWMGWINTYTGEPTYADDFKGRFAFSLETSASTAYLQINNLKNEDTATYFCTRTKVPLYFAYAMDYWGQGTSVTVSS VL: not shown | – | – | – | – | 302 ng/mL | 500 ng/mL | 204 ng/mL

Second part, led by results:

Kd (human C5 antigen [1]) | koff (human C5 antigen [1]) | kon (human C5 antigen [1]) | EC50 (human C5 antigen [2]) | Binder | IC50 (ng/ml), classical pathway (CP) hemolysis inhibition [3] | IC90 (ng/ml), classical pathway (CP) hemolysis inhibition [3] | IC50 (ng/ml), inhibition of classical pathway hemolysis of sheep red blood cells by 1% NHS [4]
0.369 nM | 7.86e-05 s⁻¹ | 213000 M⁻¹ s⁻¹ | 0.169 µg/mL | humanized antibody 16H46L39am (antibody, human IgG1, kappa, L234A L235A, V domains shown) VH: QVQLVQSGAEVKKPGASVKVSCKASGYTFTNYGMNWVRQAPGQGLEWMGWINTYTGEPTYADDFKGRFTFTLDTSTSTAYLELSSLRSEDTAVYYCARTKVPLYFAYAMDYWGQGTLVTVSS VL: DIQLTQSPSSLSASVGDRVTITCKASQSVDYEGDSYLNWYQQKPGKAPKLLIYAASNLESGIPSRFSGSGSGTDFTLTISSLQPEDFATYYCQQSNEDPSTFGGGTKVEIKR | 330 ng/mL | 507 ng/mL | –
0.359 nM | 7.81e-05 s⁻¹ | 217000 M⁻¹ s⁻¹ | 0.117 µg/mL | humanized antibody 16H1L2m (antibody, human IgG1, kappa, L234A L235A, V domains shown) VH: QVQLVQSGSELKKPGASVKVSCKASGYTFTNYGMNWVRQAPGQGLEWMGWINTYTGEPTYADDFKGRFVFSLDTSVSMAYLQISSLKAEDTAVYYCARTKVPLYFAYAMDYWGQGTLVTVSS VL: DIVLTQSPSSLAVSLGERATINCKASQSVDYEGDSYLNWYQQKPGQPPKLLIYAASNLESGIPDRFSGSGSGTDFTLTISSLQAEDVAVYYCQQSNEDPSTFGGGTKVEIKR | 347 ng/mL | 511 ng/mL | –

Reference: patent publication US20230212272A1 (LONGBIO PHARMA SUZHOU, published 2023)
